Data set [1] has as its target recombinant factor X (rFX), expressed in CHO cells from human factor X cDNA (human) (UniProt P00742). As to the kind of experiment: cell-based or functional assay.
For data set [2], the target named is T1, recombinant FX deletion mutant having the furin cleavage site Arg-Val-Thr-Arg/Ile (rFXΔ^RVTR/I).
T1 chain: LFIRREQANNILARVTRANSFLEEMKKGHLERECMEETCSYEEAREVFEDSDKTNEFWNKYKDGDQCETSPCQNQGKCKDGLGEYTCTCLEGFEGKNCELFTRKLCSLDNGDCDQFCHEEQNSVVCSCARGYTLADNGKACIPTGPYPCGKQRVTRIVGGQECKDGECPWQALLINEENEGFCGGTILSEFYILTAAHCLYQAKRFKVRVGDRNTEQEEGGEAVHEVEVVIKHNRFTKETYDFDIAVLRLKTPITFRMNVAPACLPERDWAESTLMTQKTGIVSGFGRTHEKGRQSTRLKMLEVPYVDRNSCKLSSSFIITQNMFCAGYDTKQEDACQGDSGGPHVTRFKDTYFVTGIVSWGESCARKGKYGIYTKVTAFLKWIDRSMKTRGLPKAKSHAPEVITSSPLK

From patent US6905846 come the findings set out here.

As for “rfurin ÿTM6xHis (r-furin derivative, as CHO cell culture supernatant; patent application EP 0 775 750) (from UniProt P09958 108-707) (enzyme)”, in data set [1], the functional portion of rFX (%), incubation 0 days amounted to 61%; the functional portion of rFX (%), incubation 1 day turned out to be 73%; the functional portion of rFX (%), incubation 2 days was 79%; the functional portion of rFX (%), incubation 3 days worked out at 81%. For the same molecule, the functional portion of rFX (%), incubation 4 days in data set [1] was determined as 86%.

B1: r-furinÿCys-spacer-10xHis (purified r-furin derivative; patent application EP-0 775 750-A2) (protein)
chain: DVYQEPTDPKFPQQWYLSGVTQRDLNVKAAWAQGYTGHGIVVSILDDGIEKNHPDLAGNYDPGASFDVNDQDPDPQPRYTQMNDNRHGTRCAGEVAAVANNGVCGVGVAYNARIGGVRMLDGEVTDAVEARSLGLNPNHIHIYSASWGPEDDGKTVDGPARLAEEAFFRGVSQGRGGLGSIFVWASGNGGREHDSCNCDGYTNSIYTLSISSATQFGNVPWYSEACSSTLATTYSSGNQNEKQIVTTDLRQKCTESHTGTSASAPLAAGIIALTLEANKNLTWRDMQHLVVQTSKPAHLNANDWATNGVGRKVSHSYGYGLLDAGAMVALAQNWTTVAPQRKCIIDILTEPKDIGKRLEVRKTVTACLGEPNHITRLEHAQARLTLSYNRRGDLAIHLVSPMGTRSTLLAARPHDYSADGFNDWAFMTTHSWDEDPSGEWVLEIENTSEANNYGTLTKFTLVLYGTAPEG
B1: in data set [2], the “processing/activation of rFXΔ^RVTR/I (Western blot; 6, 24, 48, 72 hours at 37° C.)” value is recorded as “In the presence of the r-furin derivative (FIG. 10A), a 35 kD protein band appears already after 6 hours of incubation (lane 5), which corresponds to the form of the FX heavy chain”.
